2 molecules from article PMC11533547 (Poultry Science, 2024) can be followed below.

B1: chicken PD-1 protein (receptor)
chain: MALGTSRTMWDSTEAALVVLCVLLLCCNPPLAGCHQVTLFPATLTRPAGSSATFICNISMENSSLEFNLNWYQKTNNSNPQKIAGIIRNIPQKKMEKYRLFNNTPVFKMEILNLHQNDSGFYYCGLITFSRSDKVVESSHSQLVVTEAPEKTNTIDEPSEEESSPPDHIKAVLLGTLLLAGVIVLLLFGYIIINNRRADVQKPSSGNTLAEVKPPVVPVPTVDYGVLEFQRDPHSQVPLETCPAEQTEYATIVFPEEKPITPERGKRHKDERTWQLPSQPC
modifications: labeled using the BLUE-NHS protein labeling kit (NanoTemper)

In test [1] the target is B1. The experiment in a line: MST.
For test [2], the target named is chicken PD-L1 protein (chicken). Nature of the test: MST.

As usually defined, the Kd is the free concentration of one partner at which half of the binding sites on the other are occupied at equilibrium, for simple one-to-one binding. In test [1], DAGLYHCLIEYGGADYKTINLK [peptide gDK2-3] gave a dissociation constant Kd of 9.73 nM.
Molecule B1 showed a Kd in test [2] of 2.65 nM.
